Patent US20210238276A1 (INTEGRAL MOLECULAR, published 2021)
Numbering of substitutions follows the chain as printed.

Experiments:
Test in all cases: flow cytometry, alanine-scan library in HEK-293T
hsGLUT4 G65A = target: T1, hsGLUT4 G65A (human, UniProt P14672 1-509)
T1 sequence: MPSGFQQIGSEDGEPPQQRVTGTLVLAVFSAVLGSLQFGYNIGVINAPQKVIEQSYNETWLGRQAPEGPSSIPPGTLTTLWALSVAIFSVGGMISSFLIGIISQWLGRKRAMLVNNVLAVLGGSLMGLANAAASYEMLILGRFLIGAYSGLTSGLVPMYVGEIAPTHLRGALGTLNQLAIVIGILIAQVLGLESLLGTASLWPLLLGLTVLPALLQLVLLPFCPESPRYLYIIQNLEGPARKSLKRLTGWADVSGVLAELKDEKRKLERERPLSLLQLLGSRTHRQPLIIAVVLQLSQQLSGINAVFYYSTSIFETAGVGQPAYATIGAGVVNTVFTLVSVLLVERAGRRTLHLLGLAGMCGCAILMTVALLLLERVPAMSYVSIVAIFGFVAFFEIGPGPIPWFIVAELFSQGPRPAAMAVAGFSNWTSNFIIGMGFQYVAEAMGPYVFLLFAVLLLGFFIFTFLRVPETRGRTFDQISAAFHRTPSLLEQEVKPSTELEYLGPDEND
Method in brief: (§1)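 HEK-293T cells expressing individual GLUT4 alanine mutants were stained 48 h post-transfection with anti-GLUT4 scFv MAbs (2 μg/ml), then biotinylated secondary and streptavidin-PerCP, and read by high-throughput flow cytometry. Where used, cytochalasin B (10 uM final) was given for 30 min before and during primary antibody staining.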

hsGLUT4 L247A = target: T2, hsGLUT4 L247A (human, UniProt P14672 1-509)
T2 sequence: T1 sequence with A65G, L247A
Method in brief: as §1

hsGLUT4 Q298A = target: T3, hsGLUT4 Q298A (human, UniProt P14672 1-509)
T3 sequence: T1 sequence with A65G, Q298A
Method in brief: as §1

hsGLUT4 N304A = target: T4, hsGLUT4 N304A (human, UniProt P14672 1-509)
T4 sequence: T1 sequence with A65G, N304A
Method in brief: as §1

## 1F8 (antibody)
hsGLUT4 G65A
  % of binding to wild type GLUT4: 95%
hsGLUT4 L247A
  % of binding to wild type GLUT4: 95%
hsGLUT4 Q298A
  % of binding to wild type GLUT4: 87%
hsGLUT4 N304A
  % of binding to wild type GLUT4: 79%

B1: AB105 (Fc fusion)
scFv: ALTQPSSVSANPGETVEITCSGDSSYYGWYQQKSPGSAPVTVIYANTNRPSDIPSRFSGSASGSTATLTITGVQAEDEAVYYCGSADSTYAGIFGAGTTLTVLGQSSRSSGGGGSSGGGGSAVTLDESGGGLQTPGGALSLICKASGFTFSSYTMNWVRQAPGKGLEWVGVISNSGRTTNYGAAVQGRATISRDNGQSTVRLQLNNLRAEDTGTYYCAKSSASASCAWWAGRSYPCSANRIDAWGHGTEVIVSS
notes: Bivalent scFv-Fc; also called MAb AB105; not shown: Fc fragment of human IgG1, cloned in frame with the scFv
hsGLUT4 N304A
  % of binding to wild type GLUT4: 11%

B2: AB111 (Fc fusion)
scFv: ALTQPSSVSANPGETVKITCSGSGSWYGWFQQKSPGSAPVTVIYSNDKRPSDIPSRFSGSKSGSTSTLTITGVQVEDEAVYYCGNWDIFGAGTTLTVLGQSSRSSGGGGSSGGGGSAVTLDESGGGLQTPGGALSLVCKASGFTFSSHGMGWVRQAPGKGLEWVASISTGRYTFYAPAVKGRATISRDNGQSTVRLQLNNLRAEDTATYYCTKCAGLNGCGGGEIDAWGHGTEVIVSS
notes: Bivalent scFv-Fc; also called MAb AB111; not shown: Fc fragment of human IgG1, cloned in frame with the scFv
hsGLUT4 G65A
  % of binding to wild type GLUT4: 15%
hsGLUT4 L247A
  % of binding to wild type GLUT4: 99%
hsGLUT4 Q298A
  % of binding to wild type GLUT4: 145%
hsGLUT4 N304A
  % of binding to wild type GLUT4: 125%

B3: AB108 (Fc fusion)
scFv: ALTQPSSVSANLGGTVKITCSGSSGSYGWYQQKAPGSAPVTLIYRNDKRPSDIPSRFSGSESGSTGTLTITGVQAEDEAVYFCGGYDSSAGYAAFGAGTTLTVLGQSSRSSGGGGSSGGGGSAVTLDESGGGLQTPGGALSLVCKASGFTFSSHGMGWVRQAPGKGLEWVGSISTGRYTFYAPAVKGRATISRDNGQSTLRLQLNNLRAEDTGTYYCTKCAGLNGCGGGEIDAWGHGTEVIVSS
notes: Bivalent scFv-Fc; also called MAb AB108; not shown: Fc fragment of human IgG1, cloned in frame with the scFv
hsGLUT4 G65A
  % of binding to wild type GLUT4: 1%
hsGLUT4 L247A
  % of binding to wild type GLUT4: 110%
hsGLUT4 Q298A
  % of binding to wild type GLUT4: 78%
hsGLUT4 N304A
  % of binding to wild type GLUT4: 72%

B4: AB101 (scFv)
scFv: ALTQPSSVSANPGETVKITCSGSSNSYGWYQQKSPGSAPVTVIYYNDKRPSDIPSRFSGSKSDSTHTLTITGVRAEDEAVYFCGSYDSTYVGIFGAGTTLTVLGQSSRSSGGGGSSGGGGSAVTLDESGGGLQTPGGTLSLVCKASGFTFSSNAMGWVRQAPGKGLEWVAGISSDGRYTKYGSAVKGRATISRDNGQSTVRLQLNNLRAEDTGTYFCAKAFGNNYRRIYAGQIDAWGHGTEVIVSS
notes: Chicken-derived clone used as a control; the four lead clones were tested as scFv-human IgG1 Fc; also called MAb AB101
hsGLUT4 G65A
  % of binding to wild type GLUT4: 87%
hsGLUT4 L247A
  % of binding to wild type GLUT4: 111%
hsGLUT4 Q298A
  % of binding to wild type GLUT4: 107%
hsGLUT4 N304A
  % of binding to wild type GLUT4: 145%
